In test [1] the target is T1, Borealin (endogenous), Q53HL2.
T1 chain: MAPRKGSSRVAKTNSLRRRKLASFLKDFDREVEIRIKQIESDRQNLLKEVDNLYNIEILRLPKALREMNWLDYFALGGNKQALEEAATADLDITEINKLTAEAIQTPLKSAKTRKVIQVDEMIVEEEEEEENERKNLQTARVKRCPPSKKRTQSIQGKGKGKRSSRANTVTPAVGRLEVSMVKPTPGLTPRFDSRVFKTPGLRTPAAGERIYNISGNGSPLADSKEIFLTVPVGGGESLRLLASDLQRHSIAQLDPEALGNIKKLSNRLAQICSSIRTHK
The test can be described thus: LacO-LacI tethering assay, immunofluorescence in U-2 OS-LacO Haspin CM cells. The note with it: chain shown with the change, n = 21 (mutant), n = 22 (parent), red bar = mean, read off a plot.

For test [2], the target named is T2, Aurora B (endogenous), Q96GD4.
T2 chain: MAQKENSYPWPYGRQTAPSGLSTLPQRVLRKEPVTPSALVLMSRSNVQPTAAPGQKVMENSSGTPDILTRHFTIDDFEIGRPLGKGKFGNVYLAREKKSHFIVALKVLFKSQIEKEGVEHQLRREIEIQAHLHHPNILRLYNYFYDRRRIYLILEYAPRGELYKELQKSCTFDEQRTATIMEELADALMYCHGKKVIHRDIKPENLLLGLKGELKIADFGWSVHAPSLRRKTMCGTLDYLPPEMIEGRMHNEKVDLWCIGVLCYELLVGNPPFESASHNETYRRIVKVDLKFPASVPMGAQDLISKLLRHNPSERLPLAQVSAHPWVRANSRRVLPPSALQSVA
Described as above. As to conditions: chain shown with the change, red bar = mean, read off a plot.

B1: Sgo1_(159–240)-LacI-GFP, Q5FBB7 V188A; S189A; V190A; R191A (protein)
chain: QIPTIPQDTLGVDFDSGEAKSTDNVLPRTAAAASSLKKHCNSICQFDSLDDFETSHLAGKSFEFERVGFLDPLVNMHIPENV
Turning to B1, the response was found to be 0.25 a.u in test [1] (parent: est. 1.4) and 0.15 a.u in test [2] (n = 23 (mutant), n = 10 (parent), parent: est. 1.2).

B2: Sgo1_(130–280)-LacI-GFP, Q5FBB7 V188A; S189A; V190A; R191A (protein)
chain: RNLFVKDLPQIPLEETELPGQGESFQIEDQIPTIPQDTLGVDFDSGEAKSTDNVLPRTAAAASSLKKHCNSICQFDSLDDFETSHLAGKSFEFERVGFLDPLVNMHIPENVQHNACQWSKDQVNLSPKLIQPGTFTKTKEDILESKSEQTK
Consider B2, for which the response in test [1] (parent: est. 1.2) worked out at 0.18 a.u; in test [2] (n = 22 (mutant), n = 20 (parent), parent: est. 0.85) it was 0.1 a.u.

Values taken from PMC9253516.
